Experimental data from US20190309059A1 (SHANGHAI PHARMAEXPLORER, published 2019).

Key:
[1] = target: his-labeled human IL-13 (immunogen A) (human) (UniProt P35225); assay: FACS blocking assay: antibody titrated with biotin-labeled immunogen A (20 ng/mL); blocked partner IL-13Ra2 on HEK293 clone 1A1; Alexa 488 streptavidin
[2] = target: his-labeled human IL-13 (immunogen A) (human) (UniProt P35225); assay: ELISA, biotin-immunogen A; antibody at 0.000 nM
[3] = target: his-labeled human IL-13 (immunogen A) (human) (UniProt P35225); assay: FACS blocking, biotin-IL-13 on IL-13Ra2 HEK293 cells; antibody at 0.27 nM
[4] = target: his-labeled human IL-13 (immunogen A) (human) (UniProt P35225); assay: cell-based or functional assay
[5] = target: his-labeled human IL-13 (immunogen A) (human) (UniProt P35225); assay: ELISA: biotin-labeled immunogen A on streptavidin plate, antibody titrated, HRP secondary antibody, OD450
[6] = target: his-labeled human IL-13 (immunogen A) (human) (UniProt P35225); assay: ELISA, biotin-immunogen A; antibody at 0.53 nM
[7] = target: his-labeled human IL-13 (immunogen A) (human) (UniProt P35225); assay: ELISA, biotin-immunogen A; antibody at 13.33 nM
[8] = target: T1, mouse IL-13 (purchased from sino biological) (mouse, UniProt P20109 19-131); assay: ELISA, mouse IL-13; antibody at 0.11 nM
T1 chain: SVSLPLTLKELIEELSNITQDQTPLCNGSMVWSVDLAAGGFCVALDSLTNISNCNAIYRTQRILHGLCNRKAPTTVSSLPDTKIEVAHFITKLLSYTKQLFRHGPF

[9] = target: his-labeled human IL-13 (immunogen A) (human) (UniProt P35225); assay: FACS blocking, biotin-IL-13 on IL-13Ra2 HEK293 cells; antibody at 0.002 nM
[10] = target: cynomolgus IL-13 (purchased from sino biological) (cynomolgus) (UniProt Q0PW92); assay: ELISA, cynomolgus IL-13; antibody at 0.53 nM
[11] = target: his-labeled human IL-13 (immunogen A) (human) (UniProt P35225); assay: FACS blocking, biotin-IL-13 on IL-13Ra2 HEK293 cells; antibody at 0.05 nM
[12] = target: his-labeled human IL-13 (immunogen A) (human) (UniProt P35225); assay: ELISA, biotin-immunogen A; antibody at 2.67 nM
[13] = target: his-labeled human IL-13 (immunogen A) (human) (UniProt P35225); assay: FACS blocking, biotin-IL-13 on IL-13Ra2 HEK293 cells; antibody at 0.01 nM
[14] = target: cynomolgus IL-13 (purchased from sino biological) (cynomolgus) (UniProt Q0PW92); assay: ELISA, cynomolgus IL-13; antibody at 2.67 nM
[15] = target: his-labeled human IL-13 (immunogen A) (human) (UniProt P35225); assay: FACS blocking, biotin-IL-13 on IL-13Ra2 HEK293 cells; antibody at 33.33 nM
[16] = target: cynomolgus IL-13 (purchased from sino biological) (cynomolgus) (UniProt Q0PW92); assay: ELISA, cynomolgus IL-13; antibody at 0.004 nM
[17] = target: his-labeled human IL-13 (immunogen A) (human) (UniProt P35225); assay: ELISA, biotin-immunogen A; antibody at 0.004 nM
[18] = target: his-labeled human IL-13 (immunogen A) (human) (UniProt P35225); assay: ELISA, biotin-immunogen A; antibody at 0.021 nM
[19] = target: his-labeled human IL-13 (immunogen A) (human) (UniProt P35225); assay: FACS blocking, biotin-IL-13 on IL-13Ra2 HEK293 cells; antibody at 166.67 nM
[20] = target: cynomolgus IL-13 (purchased from sino biological) (cynomolgus) (UniProt Q0PW92); assay: ELISA, cynomolgus IL-13; antibody at 13.33 nM
[21] = target: cynomolgus IL-13 (purchased from sino biological) (cynomolgus) (UniProt Q0PW92); assay: ELISA, cynomolgus IL-13; antibody at 0.11 nM
[22] = target: T1, mouse IL-13 (purchased from sino …); assay: ELISA, mouse IL-13; antibody at 0.000 nM
[23] = target: T1, mouse IL-13 (purchased from sino …); assay: ELISA, mouse IL-13; antibody at 0.001 nM
[24] = target: cynomolgus IL-13 (purchased from sino biological) (cynomolgus) (UniProt Q0PW92); assay: ELISA, cynomolgus IL-13; antibody at 66.67 nM
[25] = target: his-labeled human IL-13 (immunogen A) (human) (UniProt P35225); assay: FACS blocking, biotin-IL-13 on IL-13Ra2 HEK293 cells; antibody at 6.67 nM
[26] = target: T1, mouse IL-13 (purchased from sino …); assay: ELISA, mouse IL-13; antibody at 2.67 nM
[27] = target: his-labeled human IL-13 (immunogen A) (human) (UniProt P35225); assay: ELISA, biotin-immunogen A; antibody at 0.11 nM
[28] = target: T1, mouse IL-13 (purchased from sino …); assay: ELISA, mouse IL-13; antibody at 0.004 nM
[29] = target: his-labeled human IL-13 (immunogen A) (human) (UniProt P35225); assay: ELISA, biotin-immunogen A; antibody at 0.001 nM
[30] = target: his-labeled human IL-13 (immunogen A) (human) (UniProt P35225); assay: FACS blocking assay: antibody titrated with biotin-labeled immunogen A (30 ng/mL); blocked partner IL-13Ra1/IL-4Ra on HEK293 clone 4C1; Alexa 488 streptavidin
[31] = target: T1, mouse IL-13 (purchased from sino …); assay: ELISA, mouse IL-13; antibody at 0.021 nM
[32] = target: cynomolgus IL-13 (purchased from sino biological) (cynomolgus) (UniProt Q0PW92); assay: ELISA, cynomolgus IL-13; antibody at 0.021 nM
[33] = target: T1, mouse IL-13 (purchased from sino …); assay: ELISA, mouse IL-13; antibody at 0.53 nM
[34] = target: T1, mouse IL-13 (purchased from sino …); assay: ELISA, mouse IL-13; antibody at 13.33 nM
[35] = target: his-labeled human IL-13 (immunogen A) (human) (UniProt P35225); assay: FACS blocking, biotin-IL-13 on IL-13Ra2 HEK293 cells; antibody at 1.33 nM

cynomolgus IL-13 (purchased from sino biological) (cynomolgus), sequence (Q0PW92 entry or part of it): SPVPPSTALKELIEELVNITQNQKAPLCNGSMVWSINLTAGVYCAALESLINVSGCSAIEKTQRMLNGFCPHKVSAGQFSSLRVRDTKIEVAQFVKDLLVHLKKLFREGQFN

B1: 35E2C3 (lead antibody, mouse hybridoma) (antibody, V domains shown)
VH: EVQLQESGPGLAKPSQTLSLTCSVTGYSITSDYWNWIRKFPGNKLEYMGYISYNGNTYYNPSLKSQISITRDTSKNQLYLQLKSATTEDTATYYCARLAKWTWYFDIWGTGTTVTVSS
VL: DIQMNQSPSSLSASLGDTITITCHASQNINVWLSWYQQKPGSLPKLLIYKASDLHTGVPSRFSGSGSGTGFTLTISSLQPEDIATYYCQQGQSYPYTFGGGTKLEIK
notes: Mouse monoclonal antibody purified from hybridoma supernatant on Protein G
IC50 (read off the curve) [1]: 0.3 nM
OD450 nm [2]: 0.05
mean fluorescence intensity [3]: 53.2
TARC (pg/mL), A549 cells + IL-13 5 ng/mL + TNFα; antibody at 0.001 nM [4]: 1730 pg/mL
TARC (pg/mL), A549 cells + IL-13 5 ng/mL + TNFα; antibody at 0.004 nM [4]: 1670 pg/mL
TARC (pg/mL), A549 cells + IL-13 5 ng/mL + TNFα; antibody at 0.021 nM [4]: 1620 pg/mL
TARC (pg/mL), A549 cells + IL-13 5 ng/mL + TNFα; antibody at 0.11 nM [4]: 1550 pg/mL
TARC (pg/mL), A549 cells + IL-13 5 ng/mL + TNFα; antibody at 0.5 nM [4]: 1340 pg/mL
TARC (pg/mL), A549 cells + IL-13 5 ng/mL + TNFα; antibody at 2.7 nM [4]: 797 pg/mL
TARC (pg/mL), A549 cells + IL-13 5 ng/mL + TNFα; antibody at 13.3 nM [4]: 278 pg/mL
TARC (pg/mL), A549 cells + IL-13 5 ng/mL + TNFα; antibody at 66.7 nM [4]: 67 pg/mL
EC50 (read off the curve) [5]: 0.3 nM
OD450 nm [6]: 0.91
OD450 nm [7]: 1.39
OD450 nm [8]: 0.06
mean fluorescence intensity [9]: 76
OD450 nm [10]: 0.21
mean fluorescence intensity [11]: 66.6
OD450 nm [12]: 1.31
mean fluorescence intensity [13]: 74.3
OD450 nm [14]: 0.52
mean fluorescence intensity [15]: 32.4
OD450 nm [16]: 0.07
OD450 nm [17]: 0.07
OD450 nm [18]: 0.15
mean fluorescence intensity [19]: 28.9
OD450 nm [20]: 1.13
OD450 nm [21]: 0.11
OD450 nm [22]: 0.07
OD450 nm [23]: 0.07
OD450 nm [24]: 1.56
mean fluorescence intensity [25]: 35.1
OD450 nm [26]: 0.08
OD450 nm [27]: 0.41
OD450 nm [28]: 0.06
OD450 nm [29]: 0.05
IC50 (read off the curve) [30]: 0.4 nM
OD450 nm [31]: 0.06
OD450 nm [32]: 0.07
OD450 nm [33]: 0.06
OD450 nm [34]: 0.09
mean fluorescence intensity [35]: 38.7
